Test results published in publication PMC5071372, “Combining biophysical methods to analyze the disulfide bond in SH2 domain of C-terminal Src kinase” (Biophysics Reports, 2016).
Entries after “also recorded” stand apart in the source; their conditions may differ.

B1: full-length Csk: C-terminal Src kinase, full length (protein, UniProt P41240 1-450, looked up)
chain: MSAIQAAWPSGTECIAKYNFHGTAEQDLPFCKGDVLTIVAVTKDPNWYKAKNKVGREGIIPANYVQKREGVKAGTKLSLMPWFHGKITREQAERLLYPPETGLFLVRESTNYPGDYTLCVSCDGKVEHYRIMYHASKLSIDEEVYFENLMQLVEHYTSDADGLCTRLIKPKVMEGTVAAQDEFYRSGWALNMKELKLLQTIGKGEFGDVMLGDYRGNKVAVKCIKNDATAQAFLAEASVMTQLRHSNLVQLLGVIVEEKGGLYIVTEYMAKGSLVDYLRSRGRSVLGGDCLLKFSLDVCEAMEYLEGNNFVHRDLAARNVLVSEDNVAKVSDFGLTKEASSTQDTGKLPVKWTAPEALREKKFSTKSDVWSFGILLWEIYSFGRVPYPRIPLKDVVPRVEKGYKMDAPDGCPPAVYEVMKNCWHLDAAMRPSFLQLREQLEHIKTHELHL
modifications: full-length
B2: oxidized L-SH2: human Csk SH2 domain with SH3–SH2 linker, residues A73–A178, disulfide oxidized (PDB 3EAC) (protein)
chain: AGTKLSLMPWFHGKITREQAERLLYPPETGLFLVRESTNYPGDYTLCVSCDGKVEHYRIMYHASKLSIDEEVYFENLMQLVEHYTSDADGLCTRLIKPKVMEGTVA
modifications: disulfide bond C122–C164; left off: intein, end not stated, cleaved
B3: reduced L-SH2: human Csk SH2 domain with SH3–SH2 linker, residues A73–A178, reduced form (protein)
chain: AGTKLSLMPWFHGKITREQAERLLYPPETGLFLVRESTNYPGDYTLCVSCDGKVEHYRIMYHASKLSIDEEVYFENLMQLVEHYTSDADGLCTRLIKPKVMEGTVA
modifications: left off: intein, end not stated, cleaved
notes: human Csk SH2 domain with SH3–SH2 linker, residues A73–A178, reduced form

How the values were obtained:
full-length Csk = details: ref Mills et al. [2007], cited from earlier work
Excerpt: Disulfide bonds are mostly found in secretory proteins and in extracellular domains of membrane proteins. Cytosolic proteins, which contain cysteine residues that are in close proximity to each other, may function as oxidation sensors; when the reductive potential of the cell fails, they oxidize and trigger cellular response mechanisms (Sevier and Kaiser [2002]). Mills et al. studied the unique disulfide bond of Csk SH2 that is absent in other known SH2 domains.

[1] = Guanidine hydrochloride-induced unfolding monitored by tryptophan fluorescence; format: physicochemical; details: guanidine hydrochloride 0 to 6 mol/L, two-state linear extrapolation to H2O
Procedure: Intrinsic fluorescence of oxidized and reduced form of L-SH2 domain, as well as that of the cysteine mutants C122S and C164S L-SH2, was measured to examine the role of the disulfide bond in the stability of the Csk SH2 domain. […] The thermodynamic stability of these oxidized and reduced L-SH2 domains, as well as that of the mutants at equilibrium, were characterized by determining the free energy of unfolding by using guanidine hydrochloride-induced unfolding experiments monitored by tryptophan fluorescence (Fig. 4A). The curves were fitted using the linear extrapolation model to obtain the ∆G for unfolding in H2O (Santoro and Bolen [1988]). […]
Fluorescence titrations were performed at 25 °C in 3 mL of 50 mmol/L Tris-HCl (pH 7.5) using excitation and emission wavelengths of 288 nm and 320 nm, respectively. […] The concentrations of guanidine hydrochloride of the solutions were determined by measuring the index of refraction and by using the following equation: d/d 0 = 1 + 0.2710 W + 0.0330 W ^2 (Tanford et al. [1966]), where W is the weight fraction of guanidine hydrochloride in the solution, d is the density of the solution, and d 0 is the density of water. […] The signals were normalized to the fraction of unfolded species using the standard relation F unf = (I − I N)/(I U − I N), where N and U stand for the fluorescence intensity of the native and fully unfolded species, respectively. […]

Csk L-SH2 disulfide bond = test: NMR-monitored reduction of oxidized SH2 by DTT; format: physicochemical, human; details: 10 mmol/L DTT, 50 mmol/L Tris-HCl pH 7.5, 1.0 mmol/L EDTA, 0.01% NaN3, 5% D2O, 298 K, NMR peak intensity
Excerpt: During purification of the Csk L-SH2 domain, 50 mmol/L DTT was used to elute the protein from the chitin resin. The L-SH2 was used in reduced form, given that DTT was used to cleave L-SH2 from its intein fusion partner. Following elution of the protein from the ion exchange column, the L-SH2 became a mixture of the reduced and oxidized forms. The fully oxidized form was obtained by exposing the protein to air for several days.
Fig. 3 Comparison of the oxidized and reduced form of SH2. A Comparison of ^1H–^15N HSQC of oxidized (red) and reduced (green) SH2. B Combined chemical shift change of oxidized and reduced form SH2. The difference was calculated as ∆δ tot = [(∆δ H)^2 + (0.154∆δ N)^2]^1/2. […]
All NMR experiments were performed at 298 K on 800 MHz spectrometers equipped with triple-resonance cryoprobes. […] The combined change in chemical shift of a particular residue upon ligation with the kinase domain was calculated as ∆δ = [(∆δ H)^2 + (0.154∆δ N)^2]^1/2, where ∆δ H and ∆δ N correspond to the changes in amide proton and nitrogen chemical shift, respectively. The weight factor for ^1H and ^15N is determined from the ratio of the average variances of the amide nitrogen and proton chemical shifts observed for the 20 common amino acid residues in proteins deposited in the BioMagResBank (Mulder et al. [1999]). […]

| Molecule | kinase activity upon formation of the disulfide bond in the SH2 domain (full-length Csk; full-length Csk) | kinase activity on prevention of the reduction of disulfide bond (full-length Csk; restored upon re-introduction of reducing agent) | free energy of unfolding ΔG U,W^0 [1] [kcal/mol] | t1/2 of the reduction reaction (Csk L-SH2 disulfide bond) [h] |
| --- | --- | --- | --- | --- |
| B1 | decreases by an order of magnitude; also recorded: reduced by an order of magnitude | tenfold reduction in kinase activity |  |  |
| B2 |  |  | 10.1 ± 0.382 | 2.6 ± 0.1 |
| B3 |  |  | 6.57 ± 0.17 |  |
